Assays:
[1] = target: Bovine mitochondrial cytochrome c, P62894
[2] = target: T1, CycN cytochrome c protein (Pseudomonas putida S16)
T1 chain: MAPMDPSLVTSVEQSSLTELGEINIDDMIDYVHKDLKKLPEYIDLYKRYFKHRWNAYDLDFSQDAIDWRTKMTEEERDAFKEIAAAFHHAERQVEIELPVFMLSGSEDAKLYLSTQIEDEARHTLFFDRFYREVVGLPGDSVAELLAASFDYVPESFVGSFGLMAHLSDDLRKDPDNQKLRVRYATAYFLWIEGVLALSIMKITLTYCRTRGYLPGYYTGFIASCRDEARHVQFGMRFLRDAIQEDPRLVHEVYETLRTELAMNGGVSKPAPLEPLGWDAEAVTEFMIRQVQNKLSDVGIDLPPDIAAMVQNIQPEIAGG

Bovine mitochondrial cytochrome c, P62894, sequence (P62894 2-105): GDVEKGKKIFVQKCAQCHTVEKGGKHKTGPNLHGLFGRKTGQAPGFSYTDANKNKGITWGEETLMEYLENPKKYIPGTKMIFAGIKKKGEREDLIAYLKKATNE

B1: NicA2 nicotine oxidoreductase (wild-type, Pseudomonas putida S16) (protein)
chain: TQKTNRASTVKGGFDYDVVVVGGGFAGATAARECGLQGYRTLLLEARSRLGGRTFTSRFAGQEIEFGGAWVHWLQPHVWAEMQRYGLGVVEDPLTNLDKTLIMYNDGSVESISPDEFGKNIRIAFEKLCHDAWEVFPRPHEPMFTERARELDKSSVLDRIKTLGLSRLQQAQINSYMALYAGETTDKFGLPGVLKLFACGGWNYDAFMDTETHYRIQGGTIGLINAMLTDSGAEVRMSVPVTAVEQVNGGVKIKTDDDEIITAGVVVMTVPLNTYKHIGFTPALSKGKQRFIKEGQLSKGAKLYVHVKQNLGRVFAFADEQQPLNWVQTHDYSDELGTILSITIARKETIDVNDRDAVTREVQKMFPGVEVLGTAAYDWTADPFSLGAWAAYGVGQLSRLKDLQAAEGRILFAGAETSNGWHANIDGAVESGLRAGREVKQLLS
For B1, the “reduction of bovine cytochrome c, UV-VIS absorbance 250-600 nm for 15 minutes; 6.84 µM bovine cytochrome c with NicA2 and nicotine” value [1] was “The bovine mitochondrial cytochrome c was not efficiently reduced by this system”, the “kobs for the second phase, stopped-flow at 542 nm” value [2] was “invariant at ˜5.5 s^-1 independent of the CycNox concentration used” and the “reduction of CycN heme, UV-VIS absorbance (Soret band, 410 and 550 nm); 3.75 µM CycN, 30 nM NicA2, 100 µM nicotine” value [2] was “a characteristic increase and shift of Soret banding pattern was observed, which indicated that CycN had become reduced”. For the same protein, the “time to complete electron transfer, anaerobic stopped-flow; 15 µM NicA2-Flred mixed with excess CycNox” value [2] was “Electron transfer between NicA2-Flred and CycNox appeared to be very rapid, being complete in under one second”.
